# Results from article PMC4912689, “The Extracellular Surface of the GLP-1 Receptor Is a Molecular Trigger for Biased Agonism” (Cell, 2016).
# Molecular target: exendin-4, P26349
# Assay: radioligand inhibition binding (competition with 125I-exendin-4(9-39))
# Conditions: chain shown with the change;; read off a plot
row,Binder,log10 ratio
1,"glucagon-like peptide 1 receptor (GLP-1R), wild-type, P43220 Y289A (protein) RPQGATVSLWETVQKWREYRRQCQRSLTEDPPPATDLFCNRTFDEYACWPDGEPGSFVNVSCPWYLPWASSVPQGHVYRFCTAEGLWLQKDNSSLPWRDLSECEESKRGERSSPEEQLLFLYIIYTVGYALSFSALVIASAILLGFRHLHCTRNYIHLNLFASFILRALSVFIKDAALKWMYSTAAQQHQWDGLLSYQDSLSCRLVFLLMQYCVAANYYWLLVEGVYLYTLLAFSVLSEQWIFRLYVSIGWGVPLLFVVPWGIVKALYEDEGCWTRNSNMNYWLIIRLPILFAIGVNFLIFVRVICIVVSKLKANLMCKTDIKCRLAKSTLTLIPLLGTHEVIFAFVMDEHARGTLRFIKLFTELSFTSFQGLMVAILYCFVNNEVQLEFRKSWERWRLEHLHIQRDSSMKPLKCPTSSLSSGATAGSSMYTATCQASCS",0 ΔpKi
2,"glucagon-like peptide 1 receptor (GLP-1R), wild-type, P43220 R299A (protein) RPQGATVSLWETVQKWREYRRQCQRSLTEDPPPATDLFCNRTFDEYACWPDGEPGSFVNVSCPWYLPWASSVPQGHVYRFCTAEGLWLQKDNSSLPWRDLSECEESKRGERSSPEEQLLFLYIIYTVGYALSFSALVIASAILLGFRHLHCTRNYIHLNLFASFILRALSVFIKDAALKWMYSTAAQQHQWDGLLSYQDSLSCRLVFLLMQYCVAANYYWLLVEGVYLYTLLAFSVLSEQWIFRLYVSIGWGVPLLFVVPWGIVKYLYEDEGCWTANSNMNYWLIIRLPILFAIGVNFLIFVRVICIVVSKLKANLMCKTDIKCRLAKSTLTLIPLLGTHEVIFAFVMDEHARGTLRFIKLFTELSFTSFQGLMVAILYCFVNNEVQLEFRKSWERWRLEHLHIQRDSSMKPLKCPTSSLSSGATAGSSMYTATCQASCS",-1.5 ΔpKi
3,"glucagon-like peptide 1 receptor (GLP-1R), wild-type, P43220 F385A (protein) RPQGATVSLWETVQKWREYRRQCQRSLTEDPPPATDLFCNRTFDEYACWPDGEPGSFVNVSCPWYLPWASSVPQGHVYRFCTAEGLWLQKDNSSLPWRDLSECEESKRGERSSPEEQLLFLYIIYTVGYALSFSALVIASAILLGFRHLHCTRNYIHLNLFASFILRALSVFIKDAALKWMYSTAAQQHQWDGLLSYQDSLSCRLVFLLMQYCVAANYYWLLVEGVYLYTLLAFSVLSEQWIFRLYVSIGWGVPLLFVVPWGIVKYLYEDEGCWTRNSNMNYWLIIRLPILFAIGVNFLIFVRVICIVVSKLKANLMCKTDIKCRLAKSTLTLIPLLGTHEVIFAFVMDEHARGTLRFIKLATELSFTSFQGLMVAILYCFVNNEVQLEFRKSWERWRLEHLHIQRDSSMKPLKCPTSSLSSGATAGSSMYTATCQASCS",-0.2 ΔpKi
4,"glucagon-like peptide 1 receptor (GLP-1R), wild-type, P43220 G377A (protein) RPQGATVSLWETVQKWREYRRQCQRSLTEDPPPATDLFCNRTFDEYACWPDGEPGSFVNVSCPWYLPWASSVPQGHVYRFCTAEGLWLQKDNSSLPWRDLSECEESKRGERSSPEEQLLFLYIIYTVGYALSFSALVIASAILLGFRHLHCTRNYIHLNLFASFILRALSVFIKDAALKWMYSTAAQQHQWDGLLSYQDSLSCRLVFLLMQYCVAANYYWLLVEGVYLYTLLAFSVLSEQWIFRLYVSIGWGVPLLFVVPWGIVKYLYEDEGCWTRNSNMNYWLIIRLPILFAIGVNFLIFVRVICIVVSKLKANLMCKTDIKCRLAKSTLTLIPLLGTHEVIFAFVMDEHARATLRFIKLFTELSFTSFQGLMVAILYCFVNNEVQLEFRKSWERWRLEHLHIQRDSSMKPLKCPTSSLSSGATAGSSMYTATCQASCS",-0.4 ΔpKi
5,"glucagon-like peptide 1 receptor (GLP-1R), wild-type, P43220 L384A (protein) RPQGATVSLWETVQKWREYRRQCQRSLTEDPPPATDLFCNRTFDEYACWPDGEPGSFVNVSCPWYLPWASSVPQGHVYRFCTAEGLWLQKDNSSLPWRDLSECEESKRGERSSPEEQLLFLYIIYTVGYALSFSALVIASAILLGFRHLHCTRNYIHLNLFASFILRALSVFIKDAALKWMYSTAAQQHQWDGLLSYQDSLSCRLVFLLMQYCVAANYYWLLVEGVYLYTLLAFSVLSEQWIFRLYVSIGWGVPLLFVVPWGIVKYLYEDEGCWTRNSNMNYWLIIRLPILFAIGVNFLIFVRVICIVVSKLKANLMCKTDIKCRLAKSTLTLIPLLGTHEVIFAFVMDEHARGTLRFIKAFTELSFTSFQGLMVAILYCFVNNEVQLEFRKSWERWRLEHLHIQRDSSMKPLKCPTSSLSSGATAGSSMYTATCQASCS",-1.2 ΔpKi
6,"glucagon-like peptide 1 receptor (GLP-1R), wild-type, P43220 R376A (protein) RPQGATVSLWETVQKWREYRRQCQRSLTEDPPPATDLFCNRTFDEYACWPDGEPGSFVNVSCPWYLPWASSVPQGHVYRFCTAEGLWLQKDNSSLPWRDLSECEESKRGERSSPEEQLLFLYIIYTVGYALSFSALVIASAILLGFRHLHCTRNYIHLNLFASFILRALSVFIKDAALKWMYSTAAQQHQWDGLLSYQDSLSCRLVFLLMQYCVAANYYWLLVEGVYLYTLLAFSVLSEQWIFRLYVSIGWGVPLLFVVPWGIVKYLYEDEGCWTRNSNMNYWLIIRLPILFAIGVNFLIFVRVICIVVSKLKANLMCKTDIKCRLAKSTLTLIPLLGTHEVIFAFVMDEHAAGTLRFIKLFTELSFTSFQGLMVAILYCFVNNEVQLEFRKSWERWRLEHLHIQRDSSMKPLKCPTSSLSSGATAGSSMYTATCQASCS",-0.35 ΔpKi
7,"glucagon-like peptide 1 receptor (GLP-1R), wild-type, P43220 L217A (protein) RPQGATVSLWETVQKWREYRRQCQRSLTEDPPPATDLFCNRTFDEYACWPDGEPGSFVNVSCPWYLPWASSVPQGHVYRFCTAEGLWLQKDNSSLPWRDLSECEESKRGERSSPEEQLLFLYIIYTVGYALSFSALVIASAILLGFRHLHCTRNYIHLNLFASFILRALSVFIKDAALKWMYSTAAQQHQWDGALSYQDSLSCRLVFLLMQYCVAANYYWLLVEGVYLYTLLAFSVLSEQWIFRLYVSIGWGVPLLFVVPWGIVKYLYEDEGCWTRNSNMNYWLIIRLPILFAIGVNFLIFVRVICIVVSKLKANLMCKTDIKCRLAKSTLTLIPLLGTHEVIFAFVMDEHARGTLRFIKLFTELSFTSFQGLMVAILYCFVNNEVQLEFRKSWERWRLEHLHIQRDSSMKPLKCPTSSLSSGATAGSSMYTATCQASCS",-0.3 ΔpKi
8,"glucagon-like peptide 1 receptor (GLP-1R), wild-type, P43220 T378A (protein) RPQGATVSLWETVQKWREYRRQCQRSLTEDPPPATDLFCNRTFDEYACWPDGEPGSFVNVSCPWYLPWASSVPQGHVYRFCTAEGLWLQKDNSSLPWRDLSECEESKRGERSSPEEQLLFLYIIYTVGYALSFSALVIASAILLGFRHLHCTRNYIHLNLFASFILRALSVFIKDAALKWMYSTAAQQHQWDGLLSYQDSLSCRLVFLLMQYCVAANYYWLLVEGVYLYTLLAFSVLSEQWIFRLYVSIGWGVPLLFVVPWGIVKYLYEDEGCWTRNSNMNYWLIIRLPILFAIGVNFLIFVRVICIVVSKLKANLMCKTDIKCRLAKSTLTLIPLLGTHEVIFAFVMDEHARGALRFIKLFTELSFTSFQGLMVAILYCFVNNEVQLEFRKSWERWRLEHLHIQRDSSMKPLKCPTSSLSSGATAGSSMYTATCQASCS",-0.5 ΔpKi
9,"glucagon-like peptide 1 receptor (GLP-1R), wild-type, P43220 W214A (protein) RPQGATVSLWETVQKWREYRRQCQRSLTEDPPPATDLFCNRTFDEYACWPDGEPGSFVNVSCPWYLPWASSVPQGHVYRFCTAEGLWLQKDNSSLPWRDLSECEESKRGERSSPEEQLLFLYIIYTVGYALSFSALVIASAILLGFRHLHCTRNYIHLNLFASFILRALSVFIKDAALKWMYSTAAQQHQADGLLSYQDSLSCRLVFLLMQYCVAANYYWLLVEGVYLYTLLAFSVLSEQWIFRLYVSIGWGVPLLFVVPWGIVKYLYEDEGCWTRNSNMNYWLIIRLPILFAIGVNFLIFVRVICIVVSKLKANLMCKTDIKCRLAKSTLTLIPLLGTHEVIFAFVMDEHARGTLRFIKLFTELSFTSFQGLMVAILYCFVNNEVQLEFRKSWERWRLEHLHIQRDSSMKPLKCPTSSLSSGATAGSSMYTATCQASCS",-0.25 ΔpKi
10,"glucagon-like peptide 1 receptor (GLP-1R), wild-type, P43220 C296A (protein) RPQGATVSLWETVQKWREYRRQCQRSLTEDPPPATDLFCNRTFDEYACWPDGEPGSFVNVSCPWYLPWASSVPQGHVYRFCTAEGLWLQKDNSSLPWRDLSECEESKRGERSSPEEQLLFLYIIYTVGYALSFSALVIASAILLGFRHLHCTRNYIHLNLFASFILRALSVFIKDAALKWMYSTAAQQHQWDGLLSYQDSLSCRLVFLLMQYCVAANYYWLLVEGVYLYTLLAFSVLSEQWIFRLYVSIGWGVPLLFVVPWGIVKYLYEDEGAWTRNSNMNYWLIIRLPILFAIGVNFLIFVRVICIVVSKLKANLMCKTDIKCRLAKSTLTLIPLLGTHEVIFAFVMDEHARGTLRFIKLFTELSFTSFQGLMVAILYCFVNNEVQLEFRKSWERWRLEHLHIQRDSSMKPLKCPTSSLSSGATAGSSMYTATCQASCS",-1.8 ΔpKi
11,"glucagon-like peptide 1 receptor (GLP-1R), wild-type, P43220 S301A (protein) RPQGATVSLWETVQKWREYRRQCQRSLTEDPPPATDLFCNRTFDEYACWPDGEPGSFVNVSCPWYLPWASSVPQGHVYRFCTAEGLWLQKDNSSLPWRDLSECEESKRGERSSPEEQLLFLYIIYTVGYALSFSALVIASAILLGFRHLHCTRNYIHLNLFASFILRALSVFIKDAALKWMYSTAAQQHQWDGLLSYQDSLSCRLVFLLMQYCVAANYYWLLVEGVYLYTLLAFSVLSEQWIFRLYVSIGWGVPLLFVVPWGIVKYLYEDEGCWTRNANMNYWLIIRLPILFAIGVNFLIFVRVICIVVSKLKANLMCKTDIKCRLAKSTLTLIPLLGTHEVIFAFVMDEHARGTLRFIKLFTELSFTSFQGLMVAILYCFVNNEVQLEFRKSWERWRLEHLHIQRDSSMKPLKCPTSSLSSGATAGSSMYTATCQASCS",-0.3 ΔpKi
12,"glucagon-like peptide 1 receptor (GLP-1R), wild-type, P43220 L379A (protein) RPQGATVSLWETVQKWREYRRQCQRSLTEDPPPATDLFCNRTFDEYACWPDGEPGSFVNVSCPWYLPWASSVPQGHVYRFCTAEGLWLQKDNSSLPWRDLSECEESKRGERSSPEEQLLFLYIIYTVGYALSFSALVIASAILLGFRHLHCTRNYIHLNLFASFILRALSVFIKDAALKWMYSTAAQQHQWDGLLSYQDSLSCRLVFLLMQYCVAANYYWLLVEGVYLYTLLAFSVLSEQWIFRLYVSIGWGVPLLFVVPWGIVKYLYEDEGCWTRNSNMNYWLIIRLPILFAIGVNFLIFVRVICIVVSKLKANLMCKTDIKCRLAKSTLTLIPLLGTHEVIFAFVMDEHARGTARFIKLFTELSFTSFQGLMVAILYCFVNNEVQLEFRKSWERWRLEHLHIQRDSSMKPLKCPTSSLSSGATAGSSMYTATCQASCS",-0.95 ΔpKi
13,"glucagon-like peptide 1 receptor (GLP-1R), wild-type, P43220 E373A (protein) RPQGATVSLWETVQKWREYRRQCQRSLTEDPPPATDLFCNRTFDEYACWPDGEPGSFVNVSCPWYLPWASSVPQGHVYRFCTAEGLWLQKDNSSLPWRDLSECEESKRGERSSPEEQLLFLYIIYTVGYALSFSALVIASAILLGFRHLHCTRNYIHLNLFASFILRALSVFIKDAALKWMYSTAAQQHQWDGLLSYQDSLSCRLVFLLMQYCVAANYYWLLVEGVYLYTLLAFSVLSEQWIFRLYVSIGWGVPLLFVVPWGIVKYLYEDEGCWTRNSNMNYWLIIRLPILFAIGVNFLIFVRVICIVVSKLKANLMCKTDIKCRLAKSTLTLIPLLGTHEVIFAFVMDAHARGTLRFIKLFTELSFTSFQGLMVAILYCFVNNEVQLEFRKSWERWRLEHLHIQRDSSMKPLKCPTSSLSSGATAGSSMYTATCQASCS",-1.3 ΔpKi
